Blank lines part the entries; values can stand above or below the binder they belong to.
Key:
Assay in all cases: SPR, Fc-tagged protein captured by anti-human IgG
Human EphA3 Fc fusion = target: T1, Human EphA3 Fc fusion (Human, UniProt P29320 21-541, limits assumed)
T1 construct: Bought Fc fusion; also called R&D Systems 6444-A3; not shown: Fc of the bought fusion
T1 sequence (looked up): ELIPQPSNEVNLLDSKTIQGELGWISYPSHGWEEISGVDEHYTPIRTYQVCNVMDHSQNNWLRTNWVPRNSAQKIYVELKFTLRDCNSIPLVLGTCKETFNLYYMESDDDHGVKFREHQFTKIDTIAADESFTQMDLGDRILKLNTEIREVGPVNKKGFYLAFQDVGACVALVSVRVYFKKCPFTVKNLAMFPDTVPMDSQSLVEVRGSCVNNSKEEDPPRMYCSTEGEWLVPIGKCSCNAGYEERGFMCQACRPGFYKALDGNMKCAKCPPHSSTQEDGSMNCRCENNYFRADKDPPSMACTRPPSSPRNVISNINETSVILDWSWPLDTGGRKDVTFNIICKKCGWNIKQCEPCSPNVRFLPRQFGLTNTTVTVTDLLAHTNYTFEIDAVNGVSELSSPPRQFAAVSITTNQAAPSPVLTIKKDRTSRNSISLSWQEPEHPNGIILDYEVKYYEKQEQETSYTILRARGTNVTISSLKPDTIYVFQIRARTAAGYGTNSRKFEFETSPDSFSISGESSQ

Rat EphA3 Fc fusion = target: T2, Rat EphA3 Fc fusion (Rat, UniProt O08680 21-541)
T2 construct: Bought Fc fusion; also called Sino Biologics 80465-R02H; not shown: Fc of the bought fusion
T2 sequence (looked up): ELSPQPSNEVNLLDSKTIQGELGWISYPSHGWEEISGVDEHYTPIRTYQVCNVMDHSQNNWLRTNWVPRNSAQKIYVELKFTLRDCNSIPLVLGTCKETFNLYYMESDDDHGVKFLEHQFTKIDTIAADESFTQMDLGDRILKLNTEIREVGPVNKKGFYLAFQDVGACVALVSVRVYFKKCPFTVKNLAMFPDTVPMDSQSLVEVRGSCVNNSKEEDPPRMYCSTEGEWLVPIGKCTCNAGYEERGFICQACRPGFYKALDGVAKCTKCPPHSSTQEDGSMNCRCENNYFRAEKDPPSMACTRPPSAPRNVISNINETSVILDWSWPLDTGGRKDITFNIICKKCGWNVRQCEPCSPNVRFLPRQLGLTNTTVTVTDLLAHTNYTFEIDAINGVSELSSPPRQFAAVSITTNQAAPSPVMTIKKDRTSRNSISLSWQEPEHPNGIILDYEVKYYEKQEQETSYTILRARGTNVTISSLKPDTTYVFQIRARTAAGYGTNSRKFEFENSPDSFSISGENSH

Mouse EphA4 Fc fusion = target: T3, Mouse EphA4 Fc fusion (Mouse, UniProt Q03137 20-547)
T3 construct: Bought Fc fusion; also called Sino Biologics 50575-M02H; not shown: Fc of the bought fusion
T3 sequence (Q03137 20-547 limits assumed): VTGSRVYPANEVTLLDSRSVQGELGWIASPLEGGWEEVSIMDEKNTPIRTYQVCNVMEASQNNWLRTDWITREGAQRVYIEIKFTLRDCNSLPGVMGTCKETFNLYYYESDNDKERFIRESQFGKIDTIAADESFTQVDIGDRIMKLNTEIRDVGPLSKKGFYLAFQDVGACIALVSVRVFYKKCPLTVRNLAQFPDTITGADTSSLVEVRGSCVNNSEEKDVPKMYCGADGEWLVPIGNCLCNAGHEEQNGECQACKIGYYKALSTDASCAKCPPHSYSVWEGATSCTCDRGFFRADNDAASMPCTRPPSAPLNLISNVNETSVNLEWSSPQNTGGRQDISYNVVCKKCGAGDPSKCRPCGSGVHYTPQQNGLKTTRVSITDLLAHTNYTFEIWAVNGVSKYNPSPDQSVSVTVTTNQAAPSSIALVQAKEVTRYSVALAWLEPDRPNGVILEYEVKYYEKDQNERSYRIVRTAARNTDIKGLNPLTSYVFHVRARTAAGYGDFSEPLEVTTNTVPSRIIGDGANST

Rat EphB1 Fc fusion = target: T4, Rat EphB1 Fc fusion (Rat, UniProt P09759 18-540, limits assumed)
T4 construct: Bought Fc fusion; also called R&D Systems 1596-B1; not shown: Fc of the bought fusion
T4 sequence (looked up): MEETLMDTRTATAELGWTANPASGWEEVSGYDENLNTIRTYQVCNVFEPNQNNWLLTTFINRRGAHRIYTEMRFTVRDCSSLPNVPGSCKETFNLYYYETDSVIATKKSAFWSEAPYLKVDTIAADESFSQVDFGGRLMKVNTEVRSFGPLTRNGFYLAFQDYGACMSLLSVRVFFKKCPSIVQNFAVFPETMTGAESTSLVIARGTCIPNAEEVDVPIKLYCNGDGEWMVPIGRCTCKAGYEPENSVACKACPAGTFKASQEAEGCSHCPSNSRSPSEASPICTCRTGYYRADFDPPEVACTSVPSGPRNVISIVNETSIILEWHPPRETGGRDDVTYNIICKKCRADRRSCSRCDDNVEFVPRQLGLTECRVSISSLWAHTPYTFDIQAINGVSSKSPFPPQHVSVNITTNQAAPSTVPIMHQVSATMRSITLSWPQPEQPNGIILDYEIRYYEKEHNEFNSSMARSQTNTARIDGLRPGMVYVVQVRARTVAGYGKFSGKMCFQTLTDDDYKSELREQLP

Mouse EphA3 Fc fusion = target: T5, Mouse EphA3 Fc fusion (Mouse, UniProt P29319 21-540)
T5 construct: Bought Fc fusion; also called Sino Biologics 51122-M02H; not shown: Fc of the bought fusion
T5 sequence (looked up): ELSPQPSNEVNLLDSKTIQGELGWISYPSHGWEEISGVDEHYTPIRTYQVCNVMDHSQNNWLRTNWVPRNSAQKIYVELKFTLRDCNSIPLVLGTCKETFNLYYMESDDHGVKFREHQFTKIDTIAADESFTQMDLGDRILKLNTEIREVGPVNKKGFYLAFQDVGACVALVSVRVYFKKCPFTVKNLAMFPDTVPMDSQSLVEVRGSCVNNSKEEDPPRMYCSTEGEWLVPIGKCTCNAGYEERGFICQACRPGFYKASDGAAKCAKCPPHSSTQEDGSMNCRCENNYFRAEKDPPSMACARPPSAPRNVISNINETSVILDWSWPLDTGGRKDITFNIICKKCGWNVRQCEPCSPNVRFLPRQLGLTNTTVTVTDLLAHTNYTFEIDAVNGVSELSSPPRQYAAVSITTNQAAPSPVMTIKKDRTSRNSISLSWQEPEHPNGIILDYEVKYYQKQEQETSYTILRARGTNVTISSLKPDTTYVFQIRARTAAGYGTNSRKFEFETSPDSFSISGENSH

binding result (Human EphA3 Fc fusion): no binding (tested: 5 µM)
binding result (Rat EphA3 Fc fusion): no binding (tested: 20 µM)
binding result (Mouse EphA4 Fc fusion): no binding (tested: 20 µM)
binding result (Rat EphB1 Fc fusion): no binding (tested: 20 µM)
binding result (Mouse EphA3 Fc fusion): no binding (tested: 20 µM)
B1: BCY6033 (peptide)
peptide: AXDCPLVNPLCLHPGWTC
modifications: not fully specified; N-terminal (β-Ala)-Sar10 spacer precedes SEQ ID NO: 11; HArg (homoarginine) at residue 2 of SEQ ID NO: 11; three Cys cyclised on the TATA scaffold; ValCit-MMAE (MMAE-PABC-Cit-Val-glutarate) on the N-terminal amine

binding result (Human EphA3 Fc fusion): no binding (tested: 5 µM)
binding result (Rat EphA3 Fc fusion): no binding (tested: 20 µM)
binding result (Mouse EphA4 Fc fusion): no binding (tested: 20 µM)
binding result (Rat EphB1 Fc fusion): no binding (tested: 20 µM)
binding result (Mouse EphA3 Fc fusion): no binding (tested: 20 µM)
B2: BCY6082 (peptide)
peptide: AXDCPLVNPLCLHPGWTC
modifications: not fully specified; N-terminal (β-Ala)-Sar10 spacer precedes SEQ ID NO: 11; HArg (homoarginine) at residue 2 of SEQ ID NO: 11; three Cys cyclised on the TATA scaffold; DM1-SS(SO3H)- (DM1-SO3H-SPDB) on the N-terminal amine
